From publication PMC8962522 (2022) come the findings set out here.

The assay addresses CD44v3 (Homo sapiens, UniProt P16070). In words: MST.

Chain of CD44v3 (P16070 21-649): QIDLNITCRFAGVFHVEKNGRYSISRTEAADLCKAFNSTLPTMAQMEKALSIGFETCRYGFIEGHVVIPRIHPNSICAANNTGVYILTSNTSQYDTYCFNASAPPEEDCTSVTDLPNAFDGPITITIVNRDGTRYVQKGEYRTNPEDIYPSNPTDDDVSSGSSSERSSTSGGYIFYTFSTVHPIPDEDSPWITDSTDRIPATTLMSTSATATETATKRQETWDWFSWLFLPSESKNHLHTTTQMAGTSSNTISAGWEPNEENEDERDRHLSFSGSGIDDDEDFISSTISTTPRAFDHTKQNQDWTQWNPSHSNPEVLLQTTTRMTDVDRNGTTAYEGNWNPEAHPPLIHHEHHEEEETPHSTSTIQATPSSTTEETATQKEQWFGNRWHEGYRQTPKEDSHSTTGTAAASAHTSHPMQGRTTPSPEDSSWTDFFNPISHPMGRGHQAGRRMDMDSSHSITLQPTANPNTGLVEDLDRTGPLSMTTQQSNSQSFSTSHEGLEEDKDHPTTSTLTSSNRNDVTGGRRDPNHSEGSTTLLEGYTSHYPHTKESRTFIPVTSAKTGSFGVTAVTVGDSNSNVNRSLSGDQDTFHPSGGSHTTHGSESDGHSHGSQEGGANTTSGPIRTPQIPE

B1: TrkA (protein)
chain: AAPCPDACCPHGSSGLRCTRDGALDSLHHLPGAENLTELYIENQQHLQHLELRDLRGLGELRNLTIVKSGLRFVAPDAFHFTPRLSRLNLSFNALESLSWKTVQGLSLQELVLSGNPLHCSCALRWLQRWEEEGLGGVPEQKLQCHGQGPLAHMPNASCGVPTLKVQVPNASVDVGDDVLLRCQVEGRGLEQAGWILTELEQSATVMKSGGLPSLGLTLANVTSDLNRKNVTCWAENDVGRAEVSVQVNVSFPASVQLHTAVEMHHWCIPFSVDGQPAPSLRWLFNGSVLNETSFIFTEFLEPAANETVRHGCLRLNQPTHVNNGNYTLLAANPFGQASASIMAAFMDNPFEFNPEDPIPVSFSPVDTNSTSGDPVEKKDETPFGVSVAVG
modifications: NGF
In general, Kd refers to the concentration at which binding is half-saturated. A lower Kd goes with tighter binding. Consider B1, for which the equilibrium dissociation constant (Kd) turned out to be 9.47 nM.
